Data from patent US7662388B2, “Endogenous peptide and active subfragments thereof” (Innoventus Project AB, priority 2003, dated 2010).

Tests used:
primary BCE cells [1] = test: comparative study pep2/pep3, chemotaxis; type: cell-based, bovine; details: 50 ng/ml peptide, FGF-2 10 ng/ml, Zn2+-acetate
Experimental: Primary endothelial cells were starved over night in 0.5% normal calf serum. A migration assay was performed in a modified Boyden chamber as described earlier (Auerbach et al., 1991) using micropore polycarbonate filters (8 μm thick, 8 μm pore) coated with type-1 collagen solution at 100 μg/ml (Vitrogen 100, Collagen Corp). Cells were trypsinized and resuspended at 7.5×10^5 cells/ml in Dulbecco's modified essential medium (Invitrogen) containing 0.25% BSA and Trasylol at 1000 KIE. The cell suspension was added in the upper chamber and FGF-2 (10 ng/ml), HRGP (100 ng/ml), peptide 2 or 3 (50 ng/ml) in medium containing 0.25% BSA were added to the lower chamber. The peptides were dissolved in PBS containing a 10-fold molar excess (Zn:peptide) of Zn^2+-acetate. After 5 h at 37° C., cells that had migrated through the filter were stained with Giemsa and counted using the Easy Image Analysis software. All samples were analyzed in at least six wells for each treatment. Results of the study are illustrated in FIG. 7.

T241 fibrosarcoma cells [2] = test: animal study Pep2, fibrosarcoma tumour growth; type: in vivo; details: 5 mg/kg/day s.c. daily, mice bearing fibrosarcoma
Experimental: Tumour study: Female, 5 week old, C57BL6/J mice (Mollegard/Bomhultgard, Denmark) were injected with 0.5×10^6 T241 fibrosarcoma cells subcutaneously (s.c.) into the left flank. Animals carrying palpable tumours were randomised (n=5-10 animals/treatment group) and received treatment with vehicle (Zn-acetate in NaCl), 5 mg/kg/day of HIS1 (=full-length HRGP) or Pep2, in a volume of 100 microliters, given as s.c. injections daily, in the right flank. The tumours were measured with a caliper once a day, in a blind procedure, and volumes were calculated by the formula […]×width^2×length. When the tumours reached the upper limit of 2 cm^3, the mice were sacrificed. The animals were anesthetised with isoflurane (Forene; Abbott) during all manipulations.

primary BCE cells [3] = test: dose response study Pep2, chemotaxis of BCE cells; type: cell-based, bovine; details: 20, 50 or 100 ng/ml, FGF-2 10 ng/ml, Zn2+-acetate
Experimental: A migration assay was performed in a modified Boyden chamber as described earlier (Auerbach et al., 1991) using micropore polycarbonate filters (8 μm thick, 8 μm pore) coated with type-1 collagen solution at 100 μg/ml (Vitrogen 100, Collagen Corp). BCE Cells were trypsinised and resuspended at 7.5×10^5 cells/ml in Dulbecco's modified essential medium (Invitrogen) containing 0.25% BSA and Trasylol at 1000 KIE. The cell suspension was added in the upper chamber and FGF-2 (10 ng/ml), and/or peptide 2 (20, 50 or 100 ng/ml) in medium containing 0.25% BSA were added to the lower chamber. The peptides were dissolved in PBS containing a 10-fold molar excess (Zn:peptide) of Zn^2+-acetate. After 5 h at 37° C., cells that had migrated through the filter were stained with Giemsa and counted using an the Easy Image Analysis software. All samples were analysed in at least six wells for each treatment and at several separate occasions.

T241 fibrosarcoma cells [4] = test: fibrosarcoma tumour growth in mice (HRGP); type: in vivo; details: 4 mg/kg/day s.c. daily, control PBS, 11 days
Experimental: Animal work was carried out at the local animal facility and was approved by the Uppsala University board of animal experimentation and thus performed according to the UKCCCR guidelines for the welfare of animals in experimental neoplasia (Workman et al (1988)). The mice were anesthetized with isoflurane (Forene; Abbott) during all manipulations. Female, 5 week old, C57BL6/1 mice (Mollegard/Bomhultgard, Denmark) were injected with 0.5×10^6 T241 fibrosarcoma cells subcutaneously (s.c.) into the left flank. Animals carrying palpable tumours were randomized (n=7-10 animals/treatment group) and received treatment with vehicle (PBS), 4 mg/kg/day of pHRGP or 5 mg/kg/day of human IgG or His-HRGP, given as daily subcutaneous injections in the right flank. The tumours were measured with a caliper once a day, in a blind procedure, and volumes were calculated by the formula […]. When the tumours reached the upper limit of 2 cm^3, the mice were sacrificed. Three animals in each group were perfused with 4% paraformaldehyde in PBS pH 7.4. Tumours were embedded in paraffin according to standard histological procedures and sectioned at […] thickness.
C57/bl6 mice were inoculated subcutaneously with T241 fibrosarcoma cells on their left flank and when the tumours were palpable (after 4-6 days), a daily treatment was initiated with HRGP or control (PBS; FIG. 2A, or human IgG; FIG. 2B). Endostatin was included in one study for comparison (FIG. 2B). The treatment was given as subcutaneous injections in the right flank until the size of the control tumours reached the upper limit of […] (11 days; FIG. 2A, 14 days; FIG. 2B). Injections with both pHRGP (4 mg/kg/day) and His-HRGP (5 mg/kg/day) led to a drastic reduction in tumour growth and at the time of sacrifice, the size of the tumours was reduced by 67% (FIG. 2A) and 61% (FIG. 2B) respectively, compared to control-treated animals. Endostatin treatment (25 mg/kg/day) lacked significant inhibitory effect on tumour growth in this model (32% decrease).

[5] = system: chicken chorioallantoic membrane (CAM); test: chicken chorioallantoic membrane (CAM) angiogenesis assay; type: in vivo; details: for growth factor-induced CAM angiogenesis (newly formed vessels): FGF-2 or VEGF-A 0.2 mg per filter, HRGP 3 mg per filter, three days
Experimental: The effect of HRGP on anglogenesis was tested in the chicken chorioallantoic membrane (CAM) assay.
The conditions for the chorioallantoic membrane (CAM) assay followed essentially a previously described procedure (Friedlander et al (1995), Dixelius et al, (2000)). FGF-2 (Boehringer Mannheim) and VEGF-A (Peprotech) was used at 0.2 mg per filter and purified pHRGP or rHRGP at 3 mg per filter. The treated CAM's were inspected in a light microscope and the score, from 0 (low) to 3 (high) was based on the number of vessel branch points. Average values for 5-6 embryos were recorded.
A filter disc soaked in vehicle or growth factor, with or without HRGP, was placed on top of the CAM in the vicinity of a large vessel and incubated for three days. Treatment of the CAM with growth factors, such as FGF-2, stimulated angiogenesis (FIG. 1C; Table 1).

[6] = system: NIH 3T3 murine fibroblasts; test: chemotaxis assay in modified Boyden chamber, NIH 3T3 fibroblasts; type: cell-based; details: 100 ng/ml HRGP
Experimental: (§1) The porcine aortic endothelial (PAE) cell line overexpressing FGF receptor-1 (FGFR-1) (Wennström et al 1992) was cultured in Ham's F12/10% fetal bovine serum (FCS) and NIH 3T3 murine fibroblasts were cultured in Dulbecco's modified medium (DMEM)/10% newborn calf serum (NCS). F12, DMEM and serum were bought from Life Technologies. Primary bovine adrenal cortex capillary endothelial (BCE) cells were cultured on gelatin-coated dishes in DMEM/10% NCS and 2 ng/ml FGF-2 (Boehringer Mannheim). For chemotaxis assays, both PAE and NIH 3T3 cells were serum-starved over night in 0.1% BSA and BCE cells in 0.5% NCS. Human embryonic kidney (HEK) 293-EBNA cells were cultured in DMEM/10% FCS. Approximately every second month they were given 0.25 mg/ml G418 (Calbiochem) to ensure positive selection of the EBNA-1 expressing cells.
A migration assay was performed in a modified Boyden chamber as described earlier (Auerbach et al., 1991) using micropore polycarbonate filters (8 μm thick, 8 μm pore) coated with type-1 collagen solution at 100 μg/ml (Vitrogen 100, Collagen Corp). […] After 5 h at 37° C., migrated cells were stained with Giemsa and counted using an image analysis software (Easy Image Analysis) from Tekno Optik AB, Sweden. All samples were analysed in at least six parallel wells for each treatment.

primary BCE cells [7] = test: chemotaxis (migration) assay in modified Boyden chamber, BCE cells; type: cell-based, bovine
Experimental: as §1
A migration assay was performed in a modified Boyden chamber as described earlier (Auerbach et al., 1991) using micropore polycarbonate filters (8 μm thick, 8 μm pore) coated with type-1 collagen solution at 100 μg/ml (Vitrogen 100, Collagen Corp). BCE, PAE/FGFR-1 or NIH 3T3 cells were preincubated or not with HRGP (100 ng/ml) for 30 min, trypsinised and resuspended at a concentration of 7.5×10^5 cells/ml in Dulbecco's modified essential medium (Invitrogen) containing 0.25% BSA and Trasylol at 1000 KIE. FGF-2 and VEGF-A was used at 5 ng/ml, HRGP and the protein C inhibitor (PCI) at 100 ng/ml and BSA at 0.25%. After 5 h at 37° C., migrated cells were stained with Giemsa and counted using an image analysis software (Easy Image Analysis) from Tekno Optik AB, Sweden. All samples were analysed in at least six parallel wells for each treatment.

Molecule: Pep3: 25 amino acid subfragment of the central region, amino acids 365-389 of mature human HRGP, described in WO02/064621 (GHHPHGHHPHGHHPHGHHPHGHHPH; listed as Homo sapiens) [reference compound]
- FGF-2-induced chemotaxis of primary BCE cells (primary BCE cells [1]; listed as SEQ.ID.NO:4): not to be active for inhibiting angiogenesis

Molecule: Pep2: amino acid subfragment of 35 amino acids, amino acids 330-364 of mature human HRGP (DLHPHKHHSHEQHPHGHHPHAHHPHEHDTHRQHPH; listed as Homo sapiens)
- FGF-2-induced chemotaxis of primary BCE cells (primary BCE cells [1]): inhibited
- tumour growth (tumour volume) (T241 fibrosarcoma cells [2]): inhibits tumor growth
- FGF-2-induced chemotaxis of primary BCE cells, dose response (primary BCE cells [3]): dose-dependently inhibited

B1: pHRGP: HRGP purified from human plasma (protein)
chain: VSPTDCSAVEPEAEKALDLINKRRRDGYLFQLLRIADAHLDRVENTTVYYLVLDVQESDCSVLSRKYWNDCEPPDSRRPSEIVIGQCKVIATRHSHESQDLRVIDFNCTTSSVSSALANTKDSPVLIDFFEDTERYRKQANKALEKYKEENDDFASFRVDRIERVARVRGGEGTGYFVDFSVRNCPRHHFPRHPNVFGFCRADLFYDVEALDLESPKNLVINCEVFDPQEHENINGVPPHLGHPFHWGGHERSSTTKPPFKPHGSRDHHHPHKPHEHGPPPPPDERDHSHGPPLPQGPPPLLPMSCSSCQHATFGTNGAQRHSHNNNSSDLHPHKHHSHEQHPHGHHPHAHHPHEHDTHRQHPHGHHPHGHHPHGHHPHGHHPHGHHPHCHDFQDYGPCDPPPHNQGHCCHGHGPPPGHLRRRGPGKGPRPFHCRQIGSVYRLPPLRKGEVLPLPEANFPSFPLPHHKHPLKPDNQPFPQSVSESCPGKFKSGFPQVSMFFTHTFPK
- reduction of tumour size compared to control-treated animals at sacrifice (T241 fibrosarcoma cells [4]): 67%
- growth factor-induced CAM angiogenesis (newly formed vessels) [5]: efficient suppression of newly formed vessels
- effect on pre-established vessels of the CAM ([5]; FGF-2 or VEGF-A together with pHRGP, 3 mg per filter): remained unaffected

B2: rHRGP: recombinant HRGP produced in HEK-293-EBNA cells without a His-tag (protein)
chain: B1 chain
- FGF-2-induced chemotaxis of NIH 3T3 murine fibroblasts [6]: not affected
- growth factor-induced CAM angiogenesis (newly formed vessels) [5]: The same result was obtained
- FCS-induced chemotaxis of BCE cells (primary BCE cells [7]; 100 ng/ml HRGP): not inhibited
- VEGF-A-induced chemotaxis of BCE cells (primary BCE cells [7]; 100 ng/ml HRGP, VEGF-A 5 ng/ml): attenuated
- FGF-2-induced chemotaxis of BCE cells (primary BCE cells [7]; 100 ng/ml protein, FGF-2 5 ng/ml, 5 h): completely blocked
